# Reference: patent US20240026383A1 (priority 2020, published 2024)
# Several values for one entry are separate records, joined by “and”; a condition that tells them apart may be missing. Equal values may be shown once. Read-outs that look alike come from different tables or passages of the source.
# Tests used:
# [1] = test system: LacZ gene of E. coli MG1655; test: SIBR-Cas genome editing (HR and CRISPR-Cas counterselection) of LacZ; format: cell-based; conditions: for unbiased editing efficiency (LacZ deletion by PCR of randomly selected colonies): X-gal omitted from the medium; for editing efficiency: percentage of white colonies from total CFUs mL-1: blue/white screening, LacZ targeting, induced after 1 hour recovery
# Excerpt: For efficient genome editing in bacteria, HR should precede CRISPR-Cas counterselection. To assess whether tight control over CRISPR-Cas targeting could bolster the efficiency of CRISPR-Cas mediated genome editing by allowing more time for HR to occur, we used SIBR-Cas and targeted the LacZ gene of E. coli MG1655 for knock-out through HR and CRISPR-Cas counterselection using a blue/white screening colony assay. To facilitate HR, we added 500 bp up- and down-stream homology arms to the plasmids expressing the four SIBR-Cas (Int1-4) and WT-FnCas12a variants that target the LacZ gene. After 1 hour recovery, we induced the expression of the SIBR-Cas variants to counterselect the WT from the mutant colonies.
# Since disruption of LacZ can also be achieved through non-HR mediated approaches (spontaneous mutations or occasional error-prone DNA repair following DNA cleavage by Cas12a), not all gene deletions can be screened phenotypically. Therefore, we repeated our experiment, but X-gal was omitted from the medium to eliminate the possibility of false-positives. Randomly selected colonies that were obtained were screened by PCR for LacZ deletion showing a 0%, 0%, 29% and 38% editing efficiency for Int1, Int2, Int3 and Int4 SIBR-Cas variants, respectively (FIG. 24C). […] The observed decrease in editing efficiency (compared to the blue/white screening) might be attributed to spontaneous LacZ mutations that escape CRISPR-Cas counterselection. Nevertheless, a high editing efficiency (38%) was observed when SIBR-Cas Int4 was used without the use of recombinases or any other complex systems.
# [2] = test system: FlgM gene of P. putida; test: Knock-out of the FlgM gene by homologous recombination with tagged-intron-FnCas12a; format: cell-based, Pseudomonas putida; conditions: T crRNA, 2 mM theophylline
# Experimental: Further genome editing experiments were conducted to knock-out the FlgM gene of P. putida. A repair template (1125 bp) was included on the plasmids bearing approximately 500 bp homologous sides upstream and downstream of the FlgM gene. The repair template was introduced to either of the four tagged-intron-FnCas12a variants along with the T crRNA for counterselection or the NT crRNA as a control. Plasmids were transformed to P. putida through electroporation and the transformed cells were recovered in LB medium for 2 hours before plating on LB agar plates containing 50 μg ml^−1 kanamycin and 2 mM theophylline. Plates were incubated at 30° C. overnight and formed colonies were screened through colony PCR for the knock-out of the FlgM gene. […] Tag1 to Tag4 represent the four different Tagged-intron variant plasmids which contain the T (targeting) or the NT (non-targeting) crRNA. […] On the contrary, transformants bearing plasmids with an NT crRNA were all WT.
# [3] = test system: lacZ gene from E. coli interrupted with the T4 td intron; test: LacZ colorimetric (β-galactosidase) assay of T4 td intron exon variants; format: cell-based
# Excerpt: To investigate the effect of the flanking regions of the T4 td intron on its splicing efficiency and on the expression of the target gene, a series of constructs were made containing the lacZ gene from E. coli with the intron in between amino acids D6 and S7 (see FIG. 5). These amino acids were identified because insertion at this location would be least likely to impact on the structure of the protein. The lacZ gene was used because its functional expression can be easily monitored by a colorimetric assay and because of its high tolerance for modification at the 5′ end. LacZa is interrupted with the T4 td intron and therefore non-functional. Upon self-splicing and excision of the intron, the ORF of LacZa is complete and functional. LacZa encodes for β-galactosidase which is able to hydrolyse ortho-nitrophenyl-β-D-galactopyranoside (ONPG) into β-D-galactose and ortho-nitrophenol (ONP). ONP can be measured through colorimetric assays. Mutations were made by PCR in the 5′ flank as depicted in Table 1.
# All position numbers are relative to the 5′ splice site. […] Since there is the possibility of base pairing, the effect of disallowing base pairing was assessed. If there is no interaction between position −7 and the Internal Guide Sequence (IGS), (the sequence at P1 that forms the base pairing with the 5′ exon sequence), and no difference in LacZ activity should be observed. The −7 position was mutated (while all other nucleotides remained WT) to form either a wobble pair or a mismatch. The self-splicing activity of the three intron variants for β-galactosidase activity was assessed after overnight growth.
# This is similar to the situation with the −7 position. Therefore, point mutations at the +296 position of the T4 td intron were made to see if they might impact on the splicing activity of the intron. The WT +296 position (mismatch) was mutated by PCR (Table 2) to form either a pair or a wobble pair with the P1 loop. All mutants were assayed for β-galactosidase activity after overnight growth.
# This investigated the effect of altering positions −4 to −6 in all possible combinations of pair (P), mismatch (M) and wobble pair (W) (if applicable) whilst preserving all the other bases as WT. With reference to FIGS. 1 and 4A, positions −4 to −6 is GUU (positions −6 to −4 are UUG) and these pair or interact with UGA at positions +12 to +14, respectively.
# In FIG. 8 the wild type intron (*) is (sequences shown from 5′ to 3′) PWM/(UUG) and set to 1. All other LacZ activities are a fraction of the wild type activity. PMP reads either UAA or UGA both being stop codons (**). […] A wobble base pair at position −5 negates to a large extent the effect that −6 and −4 have on the splicing. […]
# [4] = test system: LacZa of E. coli MG1655; test: FnCas12a targeting assay with Tagged-T4 td intron variants (CFU drop plating); format: cell-based; conditions: T crRNA (LacZ), selection medium with 2 mM theophylline
# Excerpt: Four different intron variants (as shown previously in FIG. 8), referred to as “Tag1”, “Tag2”, etc. (Tag1: −4P, −5P, −6P; Tag2: −4W, […] −4W, −5W, −6P; Tag4: −4M, −5P, −6P) are inserted directly after the start codon of the GOI (FnCas12a gene). The 5′ exon sequences of the four different tags are indicated: Tag1: TCCtcaGGT (SEQ ID NO: 7); Tag2: TCCtcgGGT (SEQ ID NO: 8); Tag3: TCCttgGGT (SEQ ID NO: 9); Tag4: TCCtctGGT (SEQ ID NO: 10). The 3′ exon sequence is conserved amongst the 4 different tags and indicated as CTA (SEQ ID NO: 12). The amino acids corresponding to the Tag sequences are indicated with capital bold letters above the Tagged-introns. Intron-less (wild-type) FnCas12a was used as a reference for comparison. Efficiency of targeting of the different Tagged-T4 td intron variants was assessed by using either a LacZa targeting (T) or a non-targeting (NT) crRNA and by comparing the amount of colony forming units (CFUs) of transformed E. coli MG1655 per μg of plasmid used (CFUs μg^−1). CFU was determined by the number of colonies observed.
# Electrocompetent E. coli MG1655 were transformed (2.5 kV, 200 Ω, 25 μF) with 10 ng μL^−1 of the respective plasmid and recovered for 1 hour in 500 μL LB medium [10 g L^−1 tryptone (Oxoid), 5 g L^−1 yeast extract (BD), 10 g L^−1 NaCl (Acros)] at 37° C. Then, the recovered culture was serially diluted and drop plated on selective (50 μg mL^−1 kanamycin) LB agar plates in the presence or absence of 2 mM theophylline. The agar plates were incubated at 30° C. for 24 hours and the CFUs were counted.
# E. coli MG1655 was transformed with a series of plasmids (listed in Table 4) and serially diluted and drop plated on selective (kanamycin) LB media with or without 2 mM theophylline. […] The effect of the CFU reduction was more apparent for the Tag4-intron where colonies could only be observed at the 10° dilution, followed by Tag3-intron (10^−1) then Tag2-intron (10^−2) and finally Tag1-intron ([…]).
Molecule,unbiased editing efficiency (LacZ deletion by PCR of randomly selected colonies) [1] [%],editing efficiency: percentage of white colonies from total CFUs mL-1 [1] [%],editing efficiency (FlgM knock-out by colony PCR) [2] [%],self-splicing activity ranking of the Tag/Int variants [3],self-splicing activity ranking of the Tag/Int variants ([3]; listed as Int1),dilution at which colonies could be observed [4],unbiased editing efficiency (LacZ deletion by PCR of randomly selected colonies) ([1]; listed as Int4),editing efficiency: percentage of white colonies from total CFUs mL-1 ([1]; listed as Int4),self-splicing activity ranking of the Tag/Int variants ([3]; listed as Int4),editing efficiency: percentage of white colonies from total CFUs mL-1 ([1]; listed as Int2),unbiased editing efficiency (LacZ deletion by PCR of randomly selected colonies) ([1]; listed as Int3),editing efficiency: percentage of white colonies from total CFUs mL-1 ([1]; listed as Int3)
"Tag1: theophylline dependent T4 td intron after ATG of FnCas12a; −4P, −5P, −6P; 5′ exon TCCtcaGGT; SEQ ID NO: 49 (nucleic acid, Tag1 T4 td intron with the theophylline aptamer) DNA: TCCTCAGGTTAATTGAGGCCTGAGTATAAGGTGACTTATACTTGTAATCTATCTAAACGGGGAACCTCTCTAGTAGACAATCCCGTGCTAAATTGATACCAGCATCGTCTTGATGCCCTTGGCAGCATAAATGCCTAACGACTATCCCTTTGGGGAGTAGGGTCAAGTGACTCGAAACGATAGACAACTTGCTTTAACAAGTTGGAGATATAGTCTGCTCTGCATGGTGACATGCAGCTGGATATAATTCCGGGGTAAGATTAACGACCTTATCTGAACATAATGCTA",0,0,0,most “tight”,worst,10^−2,,,,,,
"Tag4: theophylline dependent T4 td intron tag; −4M, −5P, −6P; 5′ exon TCCtctGGT; SEQ ID NO: 48 (nucleic acid, Tag4 T4 td intron with the theophylline aptamer) DNA: TCCTCTGGTTAATTGAGGCCTGAGTATAAGGTGACTTATACTTGTAATCTATCTAAACGGGGAACCTCTCTAGTAGACAATCCCGTGCTAAATTGATACCAGCATCGTCTTGATGCCCTTGGCAGCATAAATGCCTAACGACTATCCCTTTGGGGAGTAGGGTCAAGTGACTCGAAACGATAGACAACTTGCTTTAACAAGTTGGAGATATAGTCTGCTCTGCATGGTGACATGCAGCTGGATATAATTCCGGGGTAAGATTAACGACCTTATCTGAACATAATGCTA",,,,most “loose”,,10°,38%±6.41% and 38%,80%±5.57% and 80%,best splicer,,,
"Tag2: theophylline dependent T4 td intron tag; −4W, −5P, −6P; 5′ exon TCCtcgGGT; SEQ ID NO: 46 (nucleic acid, Tag2 T4 td intron with the theophylline aptamer) DNA: TCCTCAGGTTAATTGAGGCCTGAGTATAAGGTGACTTATACTTGTAATCTATCTAAACGGGGAACCTCTCTAGTAGACAATCCCGTGCTAAATTGATACCAGCATCGTCTTGATGCCCTTGGCAGCATAAATGCCTAACGACTATCCCTTTGGGGAGTAGGGTCAAGTGACTCGAAACGATAGACAACTTGCTTTAACAAGTTGGAGATATAGTCTGCTCTGCATGGTGACATGCAGCTGGATATAATTCCGGGGTAAGATTAACGACCTTATCTGAACATAATGCTA",0,,39.3,,,10^−2,,,,1%±0.35% and 1%,,
"Tag3: theophylline dependent T4 td intron tag; −4W, −5W, −6P; 5′ exon TCCttgGGT; SEQ ID NO: 47 (nucleic acid, Tag3 T4 td intron with the theophylline aptamer) DNA: TCCTTGGGTTAATTGAGGCCTGAGTATAAGGTGACTTATACTTGTAATCTATCTAAACGGGGAACCTCTCTAGTAGACAATCCCGTGCTAAATTGATACCAGCATCGTCTTGATGCCCTTGGCAGCATAAATGCCTAACGACTATCCCTTTGGGGAGTAGGGTCAAGTGACTCGAAACGATAGACAACTTGCTTTAACAAGTTGGAGATATAGTCTGCTCTGCATGGTGACATGCAGCTGGATATAATTCCGGGGTAAGATTAACGACCTTATCTGAACATAATGCTA",,,36.6,,,10^−1,,,,,29%±18.04% and 29%,49%±8.75% and 49%
